The values that follow come from US20110070156A1 (published 2011).

Test [1] addresses Trop-2 (EGP-1, epithelial glycoprotein-1) (human) (UniProt P09758).
Test [2] has the same target. As to the kind of experiment: cell-based or functional assay.
Test [3] shares this target. As to the kind of experiment: ELISA on Trop-2-expressing cell lines PC-3 and Calu-3.
Test [4] has as its target T1, Trop-2 (EGP-1, epithelial glycoprotein-1) (human, UniProt P09758 27-323).
T1 construct: whole, on cells
T1 sequence (looked up): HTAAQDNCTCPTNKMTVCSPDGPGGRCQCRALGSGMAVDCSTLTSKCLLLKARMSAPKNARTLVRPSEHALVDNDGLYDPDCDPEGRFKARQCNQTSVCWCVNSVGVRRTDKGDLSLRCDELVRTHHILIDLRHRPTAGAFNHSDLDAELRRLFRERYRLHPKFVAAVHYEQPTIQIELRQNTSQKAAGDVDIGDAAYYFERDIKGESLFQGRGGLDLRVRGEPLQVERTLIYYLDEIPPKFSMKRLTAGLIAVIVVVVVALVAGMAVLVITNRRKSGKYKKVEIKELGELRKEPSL
Description: ELISA on Trop-2-expressing cell lines PC-3 and Calu-3; apparent dissociation constant.

Turning to 2L-Rap(Q)-hRS7, the Kd in test [1] came out at 0.28 nM. In test [2], this molecule gave an EC50, MTS cell proliferation assay, Calu-3 cells of 8.5 nM; an EC50, MTS cell proliferation assay, MDA-MB-468 cells of 3.8 nM; an EC50, MTS cell proliferation assay, ME-180 cells of 1.5 nM; an EC50, MTS cell proliferation assay, T-47D cells of 2 nM. For the same molecule, in test [3], the fold of apparent KD against hRS7 stood at 2 fold.

B1: hRS7 IgG (humanized RS7, anti-Trop-2 / anti-EGP-1) (antibody, V domains shown)
VH: QVQLQQSGSELKKPGASVKVSCKASGYTFTNYGMNWVKQAPGQGLKWMGWINTYTGEPTYTDDFKGRFAFSLDTSVSTAYLQISSLKADDTAVYFCARGGFGSSYWYFDVWGQGSLVTVSS
VL: DIQLTQSPSSLSASVGDRVSITCKASQDVSIAVAWYQQKPGKAPKLLIYSASYRYTGVPDRFSGSGSGTDFTLTISSLQPEDFAVYYCQQHYITPLTFGAGTKVEIKR
B1: in test [4], the Kd was 0.14 nM.
